The values that follow are results of earlier work, collected in article PMC10813780.

In the series the target is TLR4 (Homo sapiens) (UniProt O00206).
Sequence of UniProt O00206 (O00206 24-839): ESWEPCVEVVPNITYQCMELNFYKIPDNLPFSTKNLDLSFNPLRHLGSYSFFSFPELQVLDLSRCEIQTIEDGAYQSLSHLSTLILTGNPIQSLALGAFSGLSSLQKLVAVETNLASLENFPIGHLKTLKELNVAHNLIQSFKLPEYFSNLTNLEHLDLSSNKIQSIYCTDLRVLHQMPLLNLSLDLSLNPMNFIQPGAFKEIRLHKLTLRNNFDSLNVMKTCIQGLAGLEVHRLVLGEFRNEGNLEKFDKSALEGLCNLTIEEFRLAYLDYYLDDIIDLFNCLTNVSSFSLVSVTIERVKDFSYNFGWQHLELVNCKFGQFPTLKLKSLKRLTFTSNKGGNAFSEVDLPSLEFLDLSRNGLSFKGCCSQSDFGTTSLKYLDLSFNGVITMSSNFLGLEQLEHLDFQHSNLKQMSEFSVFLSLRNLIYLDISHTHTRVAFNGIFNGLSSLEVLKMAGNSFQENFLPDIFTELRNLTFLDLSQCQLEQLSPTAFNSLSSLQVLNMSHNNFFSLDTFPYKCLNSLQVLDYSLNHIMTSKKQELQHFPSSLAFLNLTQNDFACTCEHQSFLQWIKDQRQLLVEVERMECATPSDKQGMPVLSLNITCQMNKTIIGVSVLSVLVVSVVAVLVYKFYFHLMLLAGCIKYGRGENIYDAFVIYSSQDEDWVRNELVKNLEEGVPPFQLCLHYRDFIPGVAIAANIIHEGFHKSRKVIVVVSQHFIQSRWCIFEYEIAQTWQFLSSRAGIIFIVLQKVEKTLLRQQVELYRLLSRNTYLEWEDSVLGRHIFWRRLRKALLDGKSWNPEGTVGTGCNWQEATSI

What is called Kd is the constant that tells how readily two partners part at equilibrium. As to API5 (from UniProt Q9BZZ5), the Kd was 430 nM.
